# Read-outs that look alike come from different tables or passages of the source.
# What was measured:
# [1] = biological target: CAAN.A2 (HIV-1)
# [2] = biological target: G472A (HIV-1); experiment: gp120 capture ELISA
# [3] = biological target: T283A (HIV-1); experiment: gp120 capture ELISA
# [4] = biological target: D279A (HIV-1); experiment: gp120 capture ELISA
# [5] = biological target: D474A (HIV-1); experiment: gp120 capture ELISA
# [6] = biological target: D167N (HIV-1); experiment: gp120 capture ELISA
# [7] = biological target: M475A (HIV-1); experiment: gp120 capture ELISA
# [8] = biological target: R476A (HIV-1); experiment: gp120 capture ELISA
# [9] = biological target: G366A (HIV-1); experiment: gp120 capture ELISA
# [10] = biological target: I371A (HIV-1); experiment: gp120 capture ELISA
# [11] = biological target: G367A (HIV-1); experiment: gp120 capture ELISA
# [12] = biological target: N262A (HIV-1); experiment: gp120 capture ELISA
# [13] = biological target: monomeric gp120^JRCSF (HIV-1 strain JRCSF) (UniProt P20871); experiment: gp120 capture ELISA
# [14] = biological target: D368A (HIV-1); experiment: gp120 capture ELISA
# [15] = biological target: P369A (HIV-1); experiment: gp120 capture ELISA
# [16] = biological target: R469A (HIV-1); experiment: gp120 capture ELISA
# [17] = biological target: S365A (HIV-1); experiment: gp120 capture ELISA
# [18] = biological target: N332A (HIV-1); experiment: gp120 capture ELISA
# [19] = biological target: G471A (HIV-1); experiment: gp120 capture ELISA
# [20] = biological target: V372A (HIV-1); experiment: gp120 capture ELISA
# [21] = biological target: G473A (HIV-1); experiment: gp120 capture ELISA
# [22] = biological target: N197T (HIV-1); experiment: gp120 capture ELISA
# [23] = biological target: N280A (HIV-1); experiment: gp120 capture ELISA
# [24] = biological target: D457A (HIV-1); experiment: gp120 capture ELISA
# [25] = biological target: K282A (HIV-1); experiment: gp120 capture ELISA
# [26] = biological target: M373A (HIV-1); experiment: gp120 capture ELISA
# [27] = biological target: I467A (HIV-1); experiment: gp120 capture ELISA
# [28] = biological target: E370A (HIV-1); experiment: gp120 capture ELISA
# [29] = biological target: gp120 Resurfaced Stabilized Core (RSC3); experiment: ELISA on coated RSC3
# [30] = biological target: 6631.V3.C10 (HIV-1)
# [31] = biological target: CAAN.A2 (HIV-1); remark: listed apart in the source
# [32] = biological target: 6631.V3.C10 (HIV-1); remark: listed apart in the source
# [33] = biological target: Sm, Smith antigen; experiment: Luminex AtheNA Multi-Lyte ANA test
# [34] = biological target: SSA, Sjogren's syndrome antigen A; experiment: Luminex AtheNA Multi-Lyte ANA test
# [35] = biological target: Histone; experiment: Luminex AtheNA Multi-Lyte ANA test
# [36] = biological target: RNP, ribonucleoprotein; experiment: Luminex AtheNA Multi-Lyte ANA test
# [37] = biological target: SSB, Sjogren syndrome antigen B (Homo sapiens (Human)) (UniProt P05455); experiment: Luminex AtheNA Multi-Lyte ANA test
# [38] = biological target: CentrB, centromere B; experiment: Luminex AtheNA Multi-Lyte ANA test
# [39] = biological target: Jo1 antigen; experiment: Luminex AtheNA Multi-Lyte ANA test
# [40] = biological target: Scl 70, scleroderma 70; experiment: Luminex AtheNA Multi-Lyte ANA test
# [41] = biological target: 6631.V3.C10 (HIV-1); remark: listed apart in the source
# [42] = biological target: gp120 of X2088 (HIV-1 strain X2088.c9)
# [43] = biological target: T250-4 (HIV-1)
# [44] = biological target: T250-4 (HIV-1); remark: listed apart in the source
# [45] = biological target: gp120 of X2088 (HIV-1 strain X2088.c9); remark: listed apart in the source
# CentrB, centromere B, sequence (P07199 2-599): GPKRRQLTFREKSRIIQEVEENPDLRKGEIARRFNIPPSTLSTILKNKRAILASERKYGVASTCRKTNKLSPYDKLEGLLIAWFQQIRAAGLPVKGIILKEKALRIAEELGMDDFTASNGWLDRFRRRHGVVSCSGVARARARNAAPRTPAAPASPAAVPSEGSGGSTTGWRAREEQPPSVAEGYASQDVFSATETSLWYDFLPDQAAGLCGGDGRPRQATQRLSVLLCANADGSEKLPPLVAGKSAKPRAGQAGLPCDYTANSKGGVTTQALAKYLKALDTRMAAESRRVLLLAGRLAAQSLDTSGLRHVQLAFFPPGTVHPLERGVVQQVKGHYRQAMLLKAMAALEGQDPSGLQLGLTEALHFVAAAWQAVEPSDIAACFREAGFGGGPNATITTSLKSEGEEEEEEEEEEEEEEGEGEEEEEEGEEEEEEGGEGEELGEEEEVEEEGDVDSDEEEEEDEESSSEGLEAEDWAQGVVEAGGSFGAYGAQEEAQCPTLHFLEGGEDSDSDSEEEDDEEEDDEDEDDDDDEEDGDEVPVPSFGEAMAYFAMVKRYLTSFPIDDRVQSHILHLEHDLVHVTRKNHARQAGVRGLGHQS
# SSB, Sjogren syndrome antigen B (Homo sapiens (Human)), sequence (P05455 whole entry): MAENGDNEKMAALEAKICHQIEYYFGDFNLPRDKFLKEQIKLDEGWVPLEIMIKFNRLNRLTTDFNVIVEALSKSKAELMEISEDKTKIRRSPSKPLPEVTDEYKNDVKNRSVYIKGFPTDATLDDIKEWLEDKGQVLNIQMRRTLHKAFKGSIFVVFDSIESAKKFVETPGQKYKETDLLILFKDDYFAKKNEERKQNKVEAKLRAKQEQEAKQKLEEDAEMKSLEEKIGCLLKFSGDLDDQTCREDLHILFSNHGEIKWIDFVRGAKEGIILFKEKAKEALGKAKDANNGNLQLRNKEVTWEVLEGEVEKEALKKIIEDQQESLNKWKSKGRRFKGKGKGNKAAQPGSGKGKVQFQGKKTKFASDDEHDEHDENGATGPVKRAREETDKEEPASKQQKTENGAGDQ
substance,measurement,setting,value
VRC01 N6CDRH3 (antibody),neutralisation IC50,[1],2.23 µg/mL
3BNC117 (antibody),Binding affinity relative to WT (%),[2],56%
same,Binding affinity relative to WT (%),[3],71%
same,Binding affinity relative to WT (%),[4],0%
same,Binding affinity relative to WT (%),[5],38%
same,Binding affinity relative to WT (%),[6],95%
same,Binding affinity relative to WT (%),[7],169%
same,Binding affinity relative to WT (%),[8],171%
same,Binding affinity relative to WT (%),[9],27%
same,Binding affinity relative to WT (%),[10],40%
same,Binding affinity relative to WT (%),[11],25%
same,Binding affinity relative to WT (%),[12],33%
same,Binding affinity relative to WT (%),[13],100%
same,Binding affinity relative to WT (%),[14],16%
same,Binding affinity relative to WT (%),[15],75%
same,Binding affinity relative to WT (%),[16],97%
same,Binding affinity relative to WT (%),[17],90%
same,Binding affinity relative to WT (%),[18],82%
same,Binding affinity relative to WT (%),[19],164%
same,Binding affinity relative to WT (%),[20],62%
same,Binding affinity relative to WT (%),[21],40%
same,Binding affinity relative to WT (%),[22],101%
same,Binding affinity relative to WT (%),[23],36%
same,Binding affinity relative to WT (%),[24],84%
same,Binding affinity relative to WT (%),[25],3%
same,Binding affinity relative to WT (%),[26],133%
same,Binding affinity relative to WT (%),[27],87%
same,Binding affinity relative to WT (%),[28],31%
2G12 (antibody),EC50 (read off the curve),[29],0.03 µg/mL
same,Binding affinity relative to WT (%),[13],100%
same,Binding affinity relative to WT (%),[18],3%
N6 with FRH3 of VRC01 (antibody),neutralisation IC50,[30],0.152 µg/mL
12A21 heavy chain with N6 light chain (antibody),neutralisation IC50,[31],11 µg/mL
N6 GGG60-62AHS VRC27 (antibody),neutralisation IC50,[32],0.089 µg/mL
synagis (antibody),Luminex reactivity (unit not given),[33],2.3
same,Luminex reactivity (unit not given),[34],3.3
same,Luminex reactivity (unit not given),[35],3
same,Luminex reactivity (unit not given),[36],1.3
same,Luminex reactivity (unit not given),[37],4.8
same,Luminex reactivity (unit not given),[38],2
same,Luminex reactivity (unit not given),[39],2.5
same,Luminex reactivity (unit not given),[40],2
VRC01 G54YHC (antibody),neutralisation IC50,[1],1.31 µg/mL
N6 heavy chain with VRC27 light chain (antibody),neutralisation IC50,[41],0.285 µg/mL
same,neutralisation IC50,[42],> 50 µg/mL
same,neutralisation IC50,[31],0.278 µg/mL
N6 with CDRH3 of VRC01 (antibody),neutralisation IC50,[43],4.52 µg/mL
12A21 (antibody),neutralisation IC50,[44],> 50 µg/mL
same,neutralisation IC50,[41],2.37 µg/mL
same,neutralisation IC50,[42],> 50 µg/mL
same,neutralisation IC50,[31],0.539 µg/mL
same,Binding affinity relative to WT (%),[2],97%
same,Binding affinity relative to WT (%),[3],68%
same,Binding affinity relative to WT (%),[4],188%
same,Binding affinity relative to WT (%),[5],19%
same,Binding affinity relative to WT (%),[6],108%
same,Binding affinity relative to WT (%),[7],76%
same,Binding affinity relative to WT (%),[8],73%
same,Binding affinity relative to WT (%),[9],6%
same,Binding affinity relative to WT (%),[10],17%
same,Binding affinity relative to WT (%),[11],2%
same,Binding affinity relative to WT (%),[12],167%
same,Binding affinity relative to WT (%),[13],100%
same,Binding affinity relative to WT (%),[14],30%
same,Binding affinity relative to WT (%),[15],122%
same,Binding affinity relative to WT (%),[16],66%
same,Binding affinity relative to WT (%),[17],454%
same,Binding affinity relative to WT (%),[18],206%
same,Binding affinity relative to WT (%),[19],162%
same,Binding affinity relative to WT (%),[20],36%
same,Binding affinity relative to WT (%),[21],53%
same,Binding affinity relative to WT (%),[22],131%
same,Binding affinity relative to WT (%),[23],174%
same,Binding affinity relative to WT (%),[24],23%
same,Binding affinity relative to WT (%),[25],29%
same,Binding affinity relative to WT (%),[26],63%
same,Binding affinity relative to WT (%),[27],49%
same,Binding affinity relative to WT (%),[28],16%
N6 with FRL3 of VRC01 (antibody),neutralisation IC50,[30],> 50 µg/mL
same,neutralisation IC50,[45],> 50 µg/mL
VRC08 N6CDRH3 (antibody),neutralisation IC50,[1],> 50 µg/mL
b12 (antibody),EC50 (read off the curve),[29],0.01 µg/mL

# Source: patent US20180298083A1
